Experiment [1] addresses T1, human PCSK9 with a C-terminal myc-myc-hexahistidine tag (human, UniProt Q8NBP7 31-692, limits assumed).
T1 construct: also called hPCSK9-mmH; hPCSK9-mmh; not shown: C-terminal myc-myc-hexahistidine tag
Put plainly: SPR 25C, mAb captured.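 Also: biacore CM4 surface bearing anti-human Fc antibody capturing the mAbs, PCSK9 binding and release rates fitted with a one-to-one model, KD and half-life derived from those rates.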

Experiment [2] deals with T1, human PCSK9 with a C-terminal …. Put plainly: blocking ELISA pH 7.2, 500 pM hPCSK9-mmH vs coated hLDLR EGFA-hFc, exp #2. (ELISA stands for enzyme-linked immunosorbent assay.)
From the text: (§1) The equilibrated sample solutions were then transferred to the LDLR EGFA-hFc coated plate prepared as described above.
Experiment [3] concerns the target T2, recombinant cynomolgus monkey PCSK9 with a C-terminal myc-myc hexahistidine tag (cynomolgus monkey, UniProt A8T662 31-692 (Macaca nemestrina entry), limits assumed). Put plainly: cell-based or functional assay.
In experiment [4] the target is T3, human PCSK9 with a C-terminal myc-myc hexahistidine tag and a D374Y mutation (human, UniProt Q8NBP7 31-692, limits assumed). Put plainly: cell-based or functional assay.
Experiment [5] deals with T1, human PCSK9 with a C-terminal …. Put plainly: blocking ELISA pH 7.2, 500 pM hPCSK9-mmH vs coated hLDLR EGFA-hFc, exp #1.
From the text: as §1
Experiment [6] has the same target. Put plainly: SPR 25C pH 7.2, mAb captured.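 Also: biacore SPR, antibodies captured on anti-human Fc CM4 chip with PCSK9 flowed as analyte, rate constants from a one-to-one kinetic fit, KD and half-life derived from them.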
Method: (§2) A Biacore CM4 sensor chip was derivatized with a monoclonal mouse anti-human Fc antibody to capture human antibodies. The histidine substitution variant anti-PCSK9 antibodies were captured onto the anti-human Fc sensor surface from culture medium after transient expression in Chinese hamster ovary (CHO) cells. […] Kinetic association (kₐ) and dissociation (kd) rate constants were determined by processing and fitting the data to a 1:1 binding model using Scrubber 2.0 curve fitting software. Binding dissociation equilibrium constants (KD) and dissociative half-lives (t_{1/2}) were calculated from the kinetic rate constants as: KD (M)=kd/kₐ; and t_{1/2} (min)=(In2/(60*kd).
For experiment [7] the target is unchanged. Put plainly: SPR 25C pH 5.75, mAb captured.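 Also: biacore surface with anti-human Fc antibody capturing the antibodies, PCSK9 as analyte, one-to-one kinetic fit, KD as kd over ka, half-life derived from kd.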
Experiment [8] shares this target. Put plainly: blocking ELISA, hPCSK9-mmH vs coated hLDLR EGFA-hFc.
Method: (§3) Briefly, hLDLR EGFA-hFc was coated at 2 μg/mL in PBS on a 96-well microtiter plate overnight at 4° C. followed by blocking with a solution of 0.5% (w/v) BSA in PBS.
(§4) The equilibrated sample solutions were then transferred to a LDLR EGFA-hFc coated plate.
The target is the same in experiment [9]. Put plainly: blocking ELISA pH 7.2, 500 pM hPCSK9-mmH vs coated hLDLR EGFA-hFc.
Method: as §3, §4
Experiment [10] has the same target. Put plainly: SPR (Biacore), 37 °C; antibody captured on anti-human Fc surface, hPCSK9-mmH injected (3.125-50 nM); association at pH 7.4, dissociation at pH 5.75. For orientation: Surface plasmon resonance follows binding to a sensor surface in real time, without labels.
Method: (§5) A Biacore CM4 sensor chip was derivatized with a Fab′2 polyclonal anti-human Fc antibody to capture human antibodies. […] Dissociation (kd) rate constants were determined by processing and fitting the data using Scrubber version 2.0 curve fitting software. Dissociative half-lives (t_{1/2}) were calculated from the dissociation rate constants as: t_{1/2} (min)=(In2/kd)/60.
For experiment [11] the target is unchanged. Put plainly: SPR (Biacore), 37 °C; antibody captured on anti-human Fc surface, hPCSK9-mmH injected (3.125-50 nM); association at pH 7.4, dissociation at pH 6.0.
Method: as §5
The target is the same in experiment [12]. Put plainly: cell-based or functional assay.
Experiment [13] has the same target. Put plainly: blocking ELISA pH 5.75, 500 pM hPCSK9-mmH vs coated hLDLR EGFA-hFc.
Method: as §3, §4
The target is the same in experiment [14]. Put plainly: SPR 25C, purified mAb captured.
Method: as §2
(§6) Also included in these experiments were several control/comparator antibodies. All measurements were taken at 25° C.
The target is the same in experiment [15]. Put plainly: SPR (Biacore), 37 °C; antibody captured on anti-human Fc surface, hPCSK9-mmH injected (3.125-50 nM); association at pH 7.4, dissociation at pH 7.2.
Method: as §5
The target is the same in experiment [16]. Put plainly: SPR 25C pH 6.0, purified mAb captured.
Method: as §2, §6
Experiment [17] has the same target. Put plainly: SPR (Biacore), 37 °C; antibody captured on anti-human Fc surface, hPCSK9-mmH injected (3.125-50 nM); association at pH 7.4, dissociation at pH 7.4.
Method: as §5
For experiment [18] the target is unchanged. Put plainly: SPR 25C pH 7.4, purified mAb captured.
Method: as §2
All measurements were taken at 25° C.
Experiment [19] has the same target. Put plainly: cell-based or functional assay. This is another data set of the same source.
The target in experiment [20] is T2, recombinant cynomolgus monkey PCSK9 …. Put plainly: cell-based or functional assay. This is another data set of the same source.
Experiment [21] concerns the target T3, human PCSK9 with a C-terminal myc-myc …. Put plainly: cell-based or functional assay. The source holds these as a separate data set.
The target of experiment [22] is T1, human PCSK9 with a C-terminal …. Put plainly: SPR (Biacore), 37 °C; antibody captured on anti-human Fc surface, hPCSK9-mmH injected (3.125-50 nM); association at pH 7.4, dissociation at pH 7.2. The source holds these as a separate data set.
Method: as §5
Experiment [23] has the same target. Put plainly: SPR (Biacore), 37 °C; antibody captured on anti-human Fc surface, hPCSK9-mmH injected (3.125-50 nM); association at pH 7.4, dissociation at pH 7.4. This is another data set of the same source.
Method: (§7) All experiments were carried out at 37° C.
as §5
The target is the same in experiment [24]. Put plainly: SPR (Biacore), 37 °C; antibody captured on anti-human Fc surface, hPCSK9-mmH injected (3.125-50 nM); association at pH 7.4, dissociation at pH 6.0. This is another data set of the same source.
Method: as §7, §5
Experiment [25] shares this target. Put plainly: SPR (Biacore), 37 °C; antibody captured on anti-human Fc surface, hPCSK9-mmH injected (3.125-50 nM); association at pH 7.4, dissociation at pH 5.75. The source holds these as a separate data set.
Method: as §7, §5
For experiment [26] the target is unchanged. Put plainly: SPR 25C pH 7.2, mAb captured; pH 7.2 (neutral), 25 C.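 Also: biacore SPR, antibodies captured on anti-human Fc CM4 chip with PCSK9 flowed as analyte, rate constants from a one-to-one kinetic fit, KD and half-life derived from them.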
Method: as §2

Where two headings read alike, the source gives them in different places.

This note sets out measurements from patent US20140044730A1 (Regeneron, published 2014).

In general, IC50 refers to the concentration at which inhibition is half-maximal. A word on the Kd: it is the free concentration of one partner at which half of the binding sites on the other are occupied at equilibrium, for simple one-to-one binding. As a reminder, the t½ is how long it takes for the measured level to halve. For orientation: koff means the rate constant with which the complex falls apart. The kon is the rate constant with which the complex forms.

B1: Parental 300N (antibody, V domains shown)
VH: EMQLVESGGGLVQPGGSLRLSCAASGFTFSSHWMKWVRQAPGKGLEWVANINQDGSEKYYVDSVKGRFTISRDNAKNSLFLQMNSLRAEDTAVYYCARDIVLMVYDMDYYYYGMDVWGQGTTVTVSS
VL: not shown
notes: also called mAb 300N
For B1, in experiment [1], the “KD ratio pH 5.75/pH 7.2” value is 1.15. Moreover, the “t½ ratio pH 5.75/pH 7.2” value in experiment [1] stood at 0.26. In addition, the values for the half-inhibitory concentration (IC50) in experiment [2] and in experiment [5] were 0.153 nM and 0.226 nM, respectively. Also, in experiment [3], the “IC50, LDL uptake in HepG2 cells, 50 nM MfPCSK9-mmH” value (from here on “IC50 … 50 nM MfPCSK9-mmH”) was 10 nM. For the same molecule, the “IC50, LDL uptake in HepG2 cells, 2 nM hPCSK9-D374Y-mmH” value (“IC50 … 2 nM hPCSK9-D374Y-mmH” for short) in [4] worked out at 1.2 nM. The Kd in [6] is 0.865 nM; in [7], 0.999 nM. Besides, the t½ in experiment [6] worked out at 48 min; in experiment [7], 13 min.

B2: 300N(v2) (antibody, IgG4, V domains shown)
VH: EMQLVESGGGLVQPGGSLRLSCAASGFTFSSHWMKWVRQAPGKGLEWVANINQDGSEKYYVDSVKGRFTISRDNAKNSLFLQMNSLRAEDTAVYYCARDIVLMVYDMDYYYYGMDVWGQGTTVTVSS
VL: not shown
Consider B2, for which the “IC50 ratio (pH 5.75/pH 7.2)” value in experiment [8] turned out to be 1.2. Further, half-maximal inhibition in experiment [9] (IC50) required 0.221 nM. The “t½ (dissociative half-life)” value in [10] was determined as 7 min. In addition, the “t½ (dissociative half-life)” value in experiment [11] came out at 7.1 min. The “IC50, LDL uptake in HepG2 cells, 100 nM hPCSK9-mmH” value in experiment [12] is 32 nM. This molecule returned a 50% inhibitory concentration (IC50) in experiment [13] of 0.268 nM. Besides, in experiment [14], the “KD ratio pH 6.0/pH 7.4” value was 2.09, the “ka ratio pH 6.0/pH 7.4” value was 1.89, the “kd ratio pH 6.0/pH 7.4” value amounted to 3.94 and the “t½ ratio pH 6.0/pH 7.4” value was found to be 0.25. For the same molecule, in [15], the “t½ (dissociative half-life)” value worked out at 46.2 min. In experiment [16], this molecule had an equilibrium dissociation constant (Kd) of 1.14 nM, a koff of 0.000313 s⁻¹, a kon of 274000 M⁻¹ s⁻¹ and a t½ of 36.9 min. Further, the “t½ (dissociative half-life)” value in experiment [17] came out at 34.6 min. Also, in experiment [18], binding was put at a Kd of 0.546 nM, the koff stood at 7.93e-05 s⁻¹, the association rate constant (kon) was 145000 M⁻¹ s⁻¹ and the t½ is 146 min. For the same molecule, the “IC50, LDL uptake in HepG2 cells, 50 nM hPCSK9-mmH” value in [19] turned out to be 10.3 nM. Also, the “IC50 … 50 nM MfPCSK9-mmH” value in [20] turned out to be 15.7 nM. For the same molecule, the “IC50 … 2 nM hPCSK9-D374Y-mmH” value in [21] was found to be 2 nM.

B3: VK-L30H (antibody, V domains shown)
VH: EMQLVESGGGLVQPGGSLRLSCAASGFTFSSHWMKWVRQAPGKGLEWVANINQDGSEKYYVDSVKGRFTISRDNAKNSLFLQMNSLRAEDTAVYYCARDIVLMVYDMDYYYYGMDVWGQGTTVTVSS
VL: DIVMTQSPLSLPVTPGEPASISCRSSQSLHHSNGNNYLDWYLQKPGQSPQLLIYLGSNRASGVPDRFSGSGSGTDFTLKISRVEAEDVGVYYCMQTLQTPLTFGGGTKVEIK
notes: His variant of 300N
Take B3: the “IC50 ratio (pH 5.75/pH 7.2)” value in experiment [8] stood at 208. Further, the IC50 in experiment [9] was 0.209 nM; in experiment [2], 0.198 nM; in experiment [13], 43.4 nM; in experiment [5] it was 0.166 nM. For the same molecule, the “t½ (dissociative half-life)” value came out at 11.2 min in [22], 10.6 min in experiment [23], 0.4 min in [24] and 0.2 min in experiment [25]. Moreover, the “KD ratio pH 5.75/pH 7.2” value in experiment [1] stood at 25.5. Besides, the “t½ ratio pH 5.75/pH 7.2” value in experiment [1] worked out at 0.01. In addition, the “IC50, LDL uptake in HepG2 cells, 100 nM hPCSK9-mmH” value in [12] turned out to be 37 nM. In addition, in experiment [14], the “KD ratio pH 6.0/pH 7.4” value was 14.8. In addition, the “ka ratio pH 6.0/pH 7.4” value in [14] was found to be 1.94. In experiment [14], the “kd ratio pH 6.0/pH 7.4” value is 28.8. Also, in experiment [14], the “t½ ratio pH 6.0/pH 7.4” value came out at 0.03. For the same molecule, the “IC50 … 50 nM MfPCSK9-mmH” value in [3] was 19.9 nM; in experiment [20], 26.4 nM. Also, the “IC50 … 2 nM hPCSK9-D374Y-mmH” value in experiment [4] amounted to 2.1 nM; in experiment [21] it was 3.3 nM. Moreover, the Kd in [16] was 27 nM; in experiment [6], 2.27 nM; in [18], 1.82 nM; in [7] it was 57.8 nM. Further, the koff turned out to be 0.00845 s⁻¹ in [16] and 0.000293 s⁻¹ in experiment [18]. The on-rate constant (kon) was found to be 313000 M⁻¹ s⁻¹ in experiment [16] and 161000 M⁻¹ s⁻¹ in experiment [18]. The t½ was 1.4 min in experiment [16], 16 min in [6], 39.4 min in experiment [18] and 0.2 min in [7]. Also, in [19], the “IC50, LDL uptake in HepG2 cells, 50 nM hPCSK9-mmH” value was found to be 9 nM.

B4: VH-M114H (antibody, V domains shown)
VH: EMQLVESGGGLVQPGGSLRLSCAASGFTFSSHWMKWVRQAPGKGLEWVANINQDGSEKYYVDSVKGRFTISRDNAKNSLFLQMNSLRAEDTAVYYCARDIVLMVYDMDYYYYGHDVWGQGTTVTVSS
VL: not shown
notes: His variant of 300N
On to B4, for which, in experiment [26], the Kd was determined as 386 nM and the t½ was 0 h.
